Measured values published in paper PMC11965310.

Legend:
VHH H3-2 [1] = test: SEC; Superdex 75 Increase 10/300 GL, PBS, 16 °C; 20 µM VHH without or with 40 µM tau-Cter peptide
VHH H3-2 [2] = test: crystal structure; 280 μM H3-2 with 1 mM tau-Cter peptide; 23% PEG-MME 2000, 0.1 M potassium acetate; 1.8 Å

- stoichiometry N (VHH H3-2 [1]): 2
- stoichiometry N (VHH H3-2 [2]): 2
B1: VHH H3-2 (VHH)
VHH: EVQLQASGGGFVQPGGSLRLSCAASGYTSGDEIMGWFRQAPGKEREFVSAISWQSGTSTYYADSVKGRFTISRDNSKNTVYLQMNSLRAEDTATYYCAPMTLAETYYEWLISGYWGQGTQVTVSS
